Tests used:
[1] = system: Fer (mouse); experiment: phosphorylation enrichment, bacterial display (enrichment ratio); higher = better substrate or ligand; peptides without Tyr show the background
[2] = system: AncSZ; experiment: as above
[3] = biological target: FGFR1 (UniProt P11362); experiment: as above
[4] = system: c-Src; experiment: as above
[5] = biological target: EPHB1 (UniProt P54762); experiment: as above
[6] = biological target: Fes (UniProt P07332); experiment: as above
[7] = biological target: Fyn (UniProt P06241); experiment: as above
[8] = biological target: Hck (UniProt P08631); experiment: as above
[9] = biological target: EPHB2 (UniProt P29323); experiment: as above
[10] = biological target: MERTK (UniProt Q12866); experiment: as above
[11] = biological target: Jak2 (UniProt O60674); experiment: as above
[12] = biological target: FGFR3 (UniProt P22607); experiment: as above
[13] = system: c-Abl (mouse); experiment: as above
[14] = biological target: c-Src SH2; experiment: SH2 binding enrichment of the phosphorylated peptide, bacterial display (enrichment ratio); higher = better substrate or ligand; peptides without Tyr show the background
[15] = biological target: Grb2 SH2 (UniProt P62993); experiment: as above
[16] = biological target: SHP2-C SH2; experiment: as above
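For SH2 binding enrichment of the phosphorylated peptide, bacterial display in this document: peptide library displayed on the E. coli surface as eCPX fusions, selected cells deep-sequenced, score is each peptide's frequency after selection divided by its frequency in the input.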
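For phosphorylation enrichment, bacterial display in this document: 11-residue human phosphosite peptides and single-mutation variants displayed on the E. coli surface, counted by deep sequencing, each peptide's frequency after selection divided by its frequency in the unselected input library; frequency after pTyr selection over input frequency; kinase dosed for 20-30% of maximal phosphorylation in three min.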

Jak2, sequence (O60674 whole entry, looked up): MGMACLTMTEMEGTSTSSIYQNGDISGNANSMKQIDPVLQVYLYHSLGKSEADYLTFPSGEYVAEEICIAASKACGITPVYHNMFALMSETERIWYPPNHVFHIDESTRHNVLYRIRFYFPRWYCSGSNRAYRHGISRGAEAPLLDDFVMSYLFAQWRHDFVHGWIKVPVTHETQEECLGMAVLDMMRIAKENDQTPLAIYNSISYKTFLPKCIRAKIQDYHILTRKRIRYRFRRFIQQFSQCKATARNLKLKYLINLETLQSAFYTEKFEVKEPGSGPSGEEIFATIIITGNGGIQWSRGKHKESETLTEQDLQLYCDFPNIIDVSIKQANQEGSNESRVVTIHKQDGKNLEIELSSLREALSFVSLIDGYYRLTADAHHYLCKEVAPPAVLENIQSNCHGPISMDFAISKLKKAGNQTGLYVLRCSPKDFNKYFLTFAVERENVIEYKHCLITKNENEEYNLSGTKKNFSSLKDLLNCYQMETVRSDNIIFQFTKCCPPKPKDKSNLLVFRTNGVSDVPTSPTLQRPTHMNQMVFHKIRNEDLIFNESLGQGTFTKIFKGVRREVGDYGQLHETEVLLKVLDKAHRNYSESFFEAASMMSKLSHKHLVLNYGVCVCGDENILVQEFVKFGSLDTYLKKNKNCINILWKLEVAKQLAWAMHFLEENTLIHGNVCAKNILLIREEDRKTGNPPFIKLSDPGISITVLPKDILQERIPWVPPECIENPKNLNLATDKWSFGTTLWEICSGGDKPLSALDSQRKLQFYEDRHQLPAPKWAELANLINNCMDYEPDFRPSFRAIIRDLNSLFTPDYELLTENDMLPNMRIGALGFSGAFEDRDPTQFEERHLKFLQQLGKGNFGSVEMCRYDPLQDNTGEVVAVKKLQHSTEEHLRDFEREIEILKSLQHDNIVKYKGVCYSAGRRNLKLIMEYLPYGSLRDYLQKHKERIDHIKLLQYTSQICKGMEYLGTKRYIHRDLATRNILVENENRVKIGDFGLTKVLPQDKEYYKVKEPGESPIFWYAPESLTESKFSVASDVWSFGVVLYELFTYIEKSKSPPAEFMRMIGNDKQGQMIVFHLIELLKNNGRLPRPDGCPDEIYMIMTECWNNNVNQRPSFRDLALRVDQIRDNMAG
Fyn, sequence (P06241 whole entry, looked up): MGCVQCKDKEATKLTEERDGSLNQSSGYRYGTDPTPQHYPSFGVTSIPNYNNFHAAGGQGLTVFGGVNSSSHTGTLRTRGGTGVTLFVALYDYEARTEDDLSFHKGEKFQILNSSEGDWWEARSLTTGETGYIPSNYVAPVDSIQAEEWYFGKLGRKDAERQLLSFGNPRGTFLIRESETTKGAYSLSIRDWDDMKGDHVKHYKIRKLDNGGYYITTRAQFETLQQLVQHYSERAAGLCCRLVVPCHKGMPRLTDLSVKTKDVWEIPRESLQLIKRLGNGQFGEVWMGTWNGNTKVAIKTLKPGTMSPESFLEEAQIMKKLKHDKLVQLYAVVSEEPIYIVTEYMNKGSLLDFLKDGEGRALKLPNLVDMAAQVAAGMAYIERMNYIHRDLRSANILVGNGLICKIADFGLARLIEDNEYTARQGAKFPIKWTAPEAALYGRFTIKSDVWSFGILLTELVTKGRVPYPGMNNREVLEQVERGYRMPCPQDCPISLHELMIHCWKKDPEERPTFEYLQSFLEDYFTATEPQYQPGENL
Hck, sequence (P08631 whole entry, looked up): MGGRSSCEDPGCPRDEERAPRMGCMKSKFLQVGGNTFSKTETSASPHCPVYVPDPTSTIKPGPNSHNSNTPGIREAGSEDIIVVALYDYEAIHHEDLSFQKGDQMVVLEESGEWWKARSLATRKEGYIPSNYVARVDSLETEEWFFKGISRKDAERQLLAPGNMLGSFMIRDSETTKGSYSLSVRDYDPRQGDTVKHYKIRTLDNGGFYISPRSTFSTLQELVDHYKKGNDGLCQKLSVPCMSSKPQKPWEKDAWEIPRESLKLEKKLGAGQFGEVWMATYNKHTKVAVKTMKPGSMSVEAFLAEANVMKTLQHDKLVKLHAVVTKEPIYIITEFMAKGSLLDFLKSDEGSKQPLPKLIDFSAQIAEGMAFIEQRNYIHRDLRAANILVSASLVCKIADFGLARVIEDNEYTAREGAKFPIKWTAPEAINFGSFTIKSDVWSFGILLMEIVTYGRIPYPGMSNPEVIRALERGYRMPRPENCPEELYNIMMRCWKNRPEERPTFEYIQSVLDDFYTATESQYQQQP
MERTK, sequence (Q12866 whole entry, looked up): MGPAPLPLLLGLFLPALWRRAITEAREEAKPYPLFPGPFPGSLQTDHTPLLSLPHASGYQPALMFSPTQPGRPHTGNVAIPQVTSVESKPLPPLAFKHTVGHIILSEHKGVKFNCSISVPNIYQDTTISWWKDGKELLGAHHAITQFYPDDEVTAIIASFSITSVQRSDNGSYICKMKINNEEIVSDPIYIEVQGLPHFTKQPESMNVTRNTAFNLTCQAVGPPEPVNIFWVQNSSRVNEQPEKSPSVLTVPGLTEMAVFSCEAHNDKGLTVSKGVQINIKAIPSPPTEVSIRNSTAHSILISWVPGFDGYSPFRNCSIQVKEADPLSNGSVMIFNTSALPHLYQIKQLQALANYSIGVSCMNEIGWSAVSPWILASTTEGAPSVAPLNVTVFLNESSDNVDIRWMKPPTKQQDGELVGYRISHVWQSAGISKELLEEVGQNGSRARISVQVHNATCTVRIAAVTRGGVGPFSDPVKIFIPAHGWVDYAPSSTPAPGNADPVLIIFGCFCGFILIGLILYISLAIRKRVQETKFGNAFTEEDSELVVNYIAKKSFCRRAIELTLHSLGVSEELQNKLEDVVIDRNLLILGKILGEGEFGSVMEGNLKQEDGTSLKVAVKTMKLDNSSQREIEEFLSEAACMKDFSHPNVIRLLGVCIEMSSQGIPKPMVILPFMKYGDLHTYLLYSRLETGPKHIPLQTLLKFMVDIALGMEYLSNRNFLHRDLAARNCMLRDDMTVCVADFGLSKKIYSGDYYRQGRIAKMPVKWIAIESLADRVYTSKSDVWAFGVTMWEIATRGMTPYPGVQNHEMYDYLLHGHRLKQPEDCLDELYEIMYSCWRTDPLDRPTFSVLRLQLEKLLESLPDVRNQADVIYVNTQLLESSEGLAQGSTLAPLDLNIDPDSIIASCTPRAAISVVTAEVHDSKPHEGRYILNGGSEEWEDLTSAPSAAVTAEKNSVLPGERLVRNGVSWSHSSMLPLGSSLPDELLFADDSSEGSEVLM
FGFR1, sequence (P11362 whole entry, looked up): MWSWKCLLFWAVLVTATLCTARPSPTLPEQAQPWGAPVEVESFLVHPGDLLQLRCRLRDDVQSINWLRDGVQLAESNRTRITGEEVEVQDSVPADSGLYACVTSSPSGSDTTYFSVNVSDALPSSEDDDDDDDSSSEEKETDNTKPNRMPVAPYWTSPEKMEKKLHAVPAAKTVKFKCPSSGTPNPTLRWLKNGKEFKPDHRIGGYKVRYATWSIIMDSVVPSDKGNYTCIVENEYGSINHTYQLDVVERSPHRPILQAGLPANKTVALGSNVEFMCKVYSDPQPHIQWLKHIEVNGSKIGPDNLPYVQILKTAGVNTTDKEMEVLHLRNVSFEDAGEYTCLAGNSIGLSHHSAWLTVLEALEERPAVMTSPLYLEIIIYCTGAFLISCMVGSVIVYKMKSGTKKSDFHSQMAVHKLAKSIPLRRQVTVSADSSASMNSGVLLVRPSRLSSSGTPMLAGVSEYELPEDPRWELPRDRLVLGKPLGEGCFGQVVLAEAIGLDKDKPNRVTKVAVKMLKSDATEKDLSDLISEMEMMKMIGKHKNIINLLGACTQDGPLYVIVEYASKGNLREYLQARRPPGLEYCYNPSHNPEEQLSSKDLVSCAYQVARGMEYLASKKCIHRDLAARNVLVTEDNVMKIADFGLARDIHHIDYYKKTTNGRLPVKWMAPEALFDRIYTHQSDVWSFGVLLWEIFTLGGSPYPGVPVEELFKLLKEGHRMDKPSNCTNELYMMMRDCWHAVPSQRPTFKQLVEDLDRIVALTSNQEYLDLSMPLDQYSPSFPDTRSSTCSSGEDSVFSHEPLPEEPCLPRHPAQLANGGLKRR
FGFR3, sequence (P22607 whole entry, looked up): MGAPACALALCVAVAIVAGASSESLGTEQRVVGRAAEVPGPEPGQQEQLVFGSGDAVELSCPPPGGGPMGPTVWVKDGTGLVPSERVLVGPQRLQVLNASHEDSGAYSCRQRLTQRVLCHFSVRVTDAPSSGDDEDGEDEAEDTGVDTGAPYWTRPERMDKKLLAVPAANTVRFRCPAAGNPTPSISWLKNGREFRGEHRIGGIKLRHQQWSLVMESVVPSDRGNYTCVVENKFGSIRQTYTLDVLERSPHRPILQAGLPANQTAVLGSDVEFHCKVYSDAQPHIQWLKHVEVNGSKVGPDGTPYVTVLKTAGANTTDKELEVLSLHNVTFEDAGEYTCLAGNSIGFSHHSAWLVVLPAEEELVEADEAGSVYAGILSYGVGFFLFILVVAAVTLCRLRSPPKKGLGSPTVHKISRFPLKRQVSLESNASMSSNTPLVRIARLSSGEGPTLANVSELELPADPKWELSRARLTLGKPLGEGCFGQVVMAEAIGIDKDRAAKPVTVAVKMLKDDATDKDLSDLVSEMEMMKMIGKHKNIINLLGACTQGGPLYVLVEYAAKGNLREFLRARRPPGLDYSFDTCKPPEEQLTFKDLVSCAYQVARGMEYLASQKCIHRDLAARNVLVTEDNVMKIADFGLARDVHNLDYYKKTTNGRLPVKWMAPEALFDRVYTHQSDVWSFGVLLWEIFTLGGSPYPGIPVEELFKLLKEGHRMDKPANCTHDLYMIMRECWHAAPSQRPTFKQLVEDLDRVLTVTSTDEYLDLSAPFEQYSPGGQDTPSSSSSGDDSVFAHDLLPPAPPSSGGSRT

Sequence | SH2 binding enrichment [14] | SH2 binding enrichment [15] | SH2 binding enrichment [16] | phosphorylation enrichment [1] | phosphorylation enrichment [2] | phosphorylation enrichment [3] | phosphorylation enrichment [4] | phosphorylation enrichment [5] | phosphorylation enrichment [6] | phosphorylation enrichment [7] | phosphorylation enrichment [8] | phosphorylation enrichment [9] | phosphorylation enrichment [10] | phosphorylation enrichment [11] | phosphorylation enrichment [12] | phosphorylation enrichment [13]
VILARYGPAWR [CYP2D6_Y124_F120I] | 0.385 | 0.828 | 0.547 | 0.407 | 1.09 | 0.608 | 0.503 | 0.513 | 1.09 | 0.527 | 0.602 | 0.614 | 0.482 | 0.808 | 0.608 | 0.603
LNGDRYFKGIV [DCX_Y64_R59L] | 0.618 | 0.78 | 0.686 | 3.94 | 4.62 | 4.77 | 0.626 | 2.3 | 4.84 | 2.87 | 4.24 | 3.35 | 1.37 | 0.942 | 3.96 | 0.703
KYVVVYFRETD [IL17RB_Y447_I451T] | 1.7 | 2.28 | 6.88 | 0.564 | 1.36 | 0.459 | 0.491 | 0.757 | 1.34 | 0.43 | 0.579 | 0.554 | 0.445 | 1.27 | 0.708 | 0.762
HFIKLYEEKTG [PARP1_Y618_M615I] | 0.872 | 1.16 | 1.57 | 0.798 | 1.69 | 0.456 | 0.392 | 1.17 | 0.952 | 0.978 | 0.828 | 1.08 | 0.694 | 1.03 | 0.807 | 0.781
PFDAEYGGGGG [AKR1B10_Y316_N313D] | 0.378 | 0.747 | 0.798 | 0.784 | 1.81 | 1.16 | 0.918 | 0.843 | 1.5 | 1.13 | 1.14 | 1.48 | 0.783 | 1.66 | 1.09 | 1.31
QHNPEYVQQAS [LRRC7_Y1058] | 0.561 | 0.712 | 0.64 | 0.73 | 0.843 | 0.486 | 0.597 | 0.542 | 0.867 | 0.486 | 0.69 | 0.604 | 0.423 | 0.544 | 0.65 | 0.641
INNIDYYKNTT [FGFR2_Y656_K659N] | 0.662 | 1.22 | 0.793 | 0.359 | 0.724 | 0.535 | 0.378 | 0.392 | 0.708 | 0.495 | 0.462 | 0.451 | 0.428 | 0.59 | 0.538 | 0.574
PADCRYFTFPQ [GAMT_Y222_A224T_YF] | 2.07 | 1.33 | 1.78 | 0.68 | 1.1 | 1.2 | 2.58 | 0.613 | 1.53 | 0.61 | 0.761 | 0.483 | 1.66 | 2.88 | 1.09 | 0.944
NSIGNYFKPWF [DHCR24_Y299_YF] | 0.899 | 1.05 | 5.38 | 0.424 | 1.03 | 1.64 | 0.458 | 8.66 | 0.99 | 0.45 | 0.492 | 5.26 | 4.54 | 7.86 | 1.41 | 8.06
PVEAAYQKVVA [HBB_Y131_Q128E] | 0.964 | 0.725 | 0.713 | 0.558 | 0.819 | 0.573 | 0.517 | 0.397 | 0.695 | 0.56 | 0.612 | 0.401 | 0.52 | 0.556 | 0.617 | 0.601
EYGRRYGFSRQ [CCDC93_Y209] | 0.474 | 0.676 | 0.572 | 0.309 | 0.577 | 0.389 | 0.419 | 0.41 | 0.646 | 0.424 | 0.438 | 0.393 | 0.534 | 0.475 | 0.588 | 0.525
PQAVTYAKVKH [LILRB4_Y360] | 2.6 | 0.759 | 82.1 | 0.424 | 0.405 | 0.398 | 0.708 | 0.421 | 0.515 | 0.294 | 0.509 | 0.286 | 0.339 | 0.577 | 0.334 | 0.573
GIVEDYRPPFC [ACVRL1_Y421_Y426C] | 0.569 | 0.887 | 0.713 | 0.437 | 0.994 | 0.598 | 0.517 | 0.511 | 1.01 | 0.492 | 0.406 | 0.532 | 0.451 | 0.883 | 0.599 | 0.782
WASGIYFVPKG [APBB1IP_Y340_R335W_YF] | 0.848 | 1.29 | 1.17 | 2.87 | 2.81 | 4.77 | 5.32 | 10.1 | 0.993 | 7.44 | 7.16 | 10 | 9 | 7.69 | 4.26 | 28.7
LDTFIYDAAVL [GRIN2A_Y730_A727T] | 0.767 | 0.785 | 0.921 | 16.9 | 1.97 | 0.827 | 7.94 | 1.68 | 1.65 | 7.61 | 8.1 | 2.05 | 2.94 | 1.4 | 0.991 | 7.38
FKTPTYPFLLP [PLD2_Y578_YF] | 0.657 | 0.971 | 0.745 | 0.362 | 0.641 | 0.652 | 0.552 | 0.74 | 0.693 | 0.413 | 0.43 | 0.422 | 0.588 | 0.815 | 0.704 | 0.833
RFVSRYIFNRE [HLA-DQB1_Y62_T60S_YF] | 0.499 | 0.733 | 1.2 | 0.976 | 1.86 | 0.852 | 0.916 | 1.13 | 1.46 | 1.05 | 0.79 | 0.744 | 0.994 | 2.14 | 0.934 | 0.867
SSSGGYGGGFG [KRT19_Y61_A60G_YF] | 0.375 | 1.09 | 0.481 | 0.358 | 0.48 | 0.32 | 0.356 | 0.341 | 0.593 | 0.355 | 0.35 | 0.346 | 0.398 | 0.499 | 0.477 | 0.512
ITGNGYYFRVF [MYBPC3_Y1135_I1131T] | 0.475 | 0.665 | 0.799 | 0.488 | 1.04 | 0.41 | 0.301 | 0.561 | 1.08 | 0.384 | 0.385 | 0.589 | 0.294 | 0.936 | 0.72 | 0.701
HSKGIYYVQLE [MGAT4B_Y262_Q257H] | 1.31 | 1.08 | 1.76 | 0.615 | 1.28 | 5.54 | 4.78 | 1.68 | 1.39 | 3.29 | 2.88 | 1.03 | 9.49 | 4.4 | 3.3 | 1.02
SLNEEYTKNKT [MSH2_Y563] | 0.621 | 0.988 | 0.663 | 0.379 | 0.716 | 0.324 | 0.426 | 0.369 | 0.786 | 0.325 | 0.37 | 0.354 | 0.348 | 0.593 | 0.397 | 0.537
TNIKRYHIAKV [HARS1_Y150] | 0.81 | 0.967 | 0.986 | 0.278 | 0.408 | 0.301 | 0.348 | 0.301 | 0.553 | 0.379 | 0.264 | 0.322 | 0.358 | 0.43 | 0.328 | 0.375
IRGNMYFENSF [EGFR_Y112_YF] | 0.606 | 0.895 | 1.05 | 0.527 | 0.879 | 0.514 | 0.395 | 0.581 | 1.07 | 0.438 | 0.457 | 0.547 | 0.536 | 0.841 | 0.713 | 0.583

Now from value to sequence, other results behind:

SH2 binding enrichment [14] | SH2 binding enrichment [15] | SH2 binding enrichment [16] | Sequence | phosphorylation enrichment [1] | phosphorylation enrichment [2] | phosphorylation enrichment [3] | phosphorylation enrichment [4] | phosphorylation enrichment [5] | phosphorylation enrichment [6] | phosphorylation enrichment [7] | phosphorylation enrichment [8] | phosphorylation enrichment [9] | phosphorylation enrichment [10] | phosphorylation enrichment [11] | phosphorylation enrichment [12] | phosphorylation enrichment [13]
0.482 | 1.27 | 0.594 | SENPKYPEVGD [TMEM43_Y233] | 0.424 | 1.01 | 0.6 | 0.584 | 0.459 | 1.2 | 0.616 | 0.536 | 0.561 | 0.522 | 0.891 | 0.734 | 0.822
0.56 | 0.904 | 0.639 | DFFDLYGGEKF [PTPN11_Y66_YF] | 0.682 | 0.912 | 0.523 | 2.79 | 0.569 | 1 | 2.12 | 3.08 | 0.525 | 0.441 | 1.06 | 0.629 | 0.967
0.605 | 1.14 | 0.6 | PMQLPYDSRWE [PDGFRA_Y582] | 0.485 | 1.05 | 0.523 | 0.893 | 0.472 | 0.854 | 0.665 | 0.706 | 0.623 | 0.353 | 0.821 | 0.712 | 0.577
0.473 | 1.05 | 0.84 | AELVQYFMEHH [PTPN11_Y80_YF] | 0.463 | 1.02 | 0.652 | 0.437 | 0.618 | 1.08 | 0.623 | 0.66 | 0.545 | 0.508 | 0.695 | 0.762 | 0.547
0.482 | 0.767 | 0.603 | SVTCTSSPALN [TP53_Y126_Y126S] | 0.538 | 1.3 | 0.476 | 0.47 | 0.626 | 1.34 | 0.562 | 0.526 | 0.675 | 0.436 | 1.18 | 0.863 | 0.856
0.473 | 0.627 | 0.494 | SVTCTFSPALN [TP53_Y126_Y126F] | 0.673 | 2.01 | 0.602 | 0.541 | 0.845 | 1.89 | 0.562 | 0.621 | 0.675 | 0.515 | 1.74 | 1.03 | 1.19
0.946 | 0.942 | 0.675 | VVEYGYEFFAK [PPP1CB_Y254_D252Y] | 0.835 | 2.57 | 0.762 | 0.719 | 0.798 | 1.56 | 0.609 | 0.72 | 0.82 | 0.601 | 1.47 | 0.995 | 1.09
0.487 | 0.938 | 0.675 | PKDSAYVTWEP | 2.5 | 1.66 | 2.14 | 2.02 | 1.03 | 1.4 | 2.17 | 2.38 | 0.798 | 1.39 | 1.36 | 1.45 | 1.16
0.59 | 1.8 | 0.573 | RDLEQYVNNVN [PCDH19_Y1097] | 0.356 | 1.06 | 0.476 | 0.541 | 0.64 | 1.01 | 0.405 | 0.377 | 0.625 | 0.612 | 1.09 | 0.633 | 0.968
0.743 | 0.59 | 0.766 | NTGVFYDLFGG [PTPN11_Y63_D61V_YF] | 2.86 | 0.99 | 0.455 | 4.82 | 0.609 | 1.12 | 3.21 | 2.84 | 0.986 | 7.01 | 0.958 | 0.638 | 0.797

From the supplement of paper PMC10065799, “High-throughput profiling of sequence recognition by tyrosine kinases and SH2 domains using bacterial peptide display” (eLife, 2023)
